From patent publication US6998260

recombinant human β-I tryptase (from pPIC9-HumTry, expressed in Pichia pastoris), sequence (chain, as listed by the source): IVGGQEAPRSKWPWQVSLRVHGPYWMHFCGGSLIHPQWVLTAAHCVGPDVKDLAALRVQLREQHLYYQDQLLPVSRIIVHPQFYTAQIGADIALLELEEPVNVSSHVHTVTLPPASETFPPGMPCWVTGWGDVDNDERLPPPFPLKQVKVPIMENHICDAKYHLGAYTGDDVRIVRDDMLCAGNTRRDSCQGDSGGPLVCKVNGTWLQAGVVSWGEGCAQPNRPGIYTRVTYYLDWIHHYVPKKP
recombinant human β-II tryptase (from pPIC9-HumTryN102K, expressed in Pichia pastoris), sequence (chain, as listed by the source): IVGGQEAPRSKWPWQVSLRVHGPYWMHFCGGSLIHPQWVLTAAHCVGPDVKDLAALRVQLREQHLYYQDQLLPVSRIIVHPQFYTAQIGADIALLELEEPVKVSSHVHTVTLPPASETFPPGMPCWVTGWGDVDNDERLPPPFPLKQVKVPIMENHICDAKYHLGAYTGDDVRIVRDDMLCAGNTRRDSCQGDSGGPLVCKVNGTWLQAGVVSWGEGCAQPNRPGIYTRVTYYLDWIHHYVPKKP

These substances were tested against human fibrinogen (UniProt P02671).
human fibrinogen, sequence (P02671 20-629, chain 1 of 3): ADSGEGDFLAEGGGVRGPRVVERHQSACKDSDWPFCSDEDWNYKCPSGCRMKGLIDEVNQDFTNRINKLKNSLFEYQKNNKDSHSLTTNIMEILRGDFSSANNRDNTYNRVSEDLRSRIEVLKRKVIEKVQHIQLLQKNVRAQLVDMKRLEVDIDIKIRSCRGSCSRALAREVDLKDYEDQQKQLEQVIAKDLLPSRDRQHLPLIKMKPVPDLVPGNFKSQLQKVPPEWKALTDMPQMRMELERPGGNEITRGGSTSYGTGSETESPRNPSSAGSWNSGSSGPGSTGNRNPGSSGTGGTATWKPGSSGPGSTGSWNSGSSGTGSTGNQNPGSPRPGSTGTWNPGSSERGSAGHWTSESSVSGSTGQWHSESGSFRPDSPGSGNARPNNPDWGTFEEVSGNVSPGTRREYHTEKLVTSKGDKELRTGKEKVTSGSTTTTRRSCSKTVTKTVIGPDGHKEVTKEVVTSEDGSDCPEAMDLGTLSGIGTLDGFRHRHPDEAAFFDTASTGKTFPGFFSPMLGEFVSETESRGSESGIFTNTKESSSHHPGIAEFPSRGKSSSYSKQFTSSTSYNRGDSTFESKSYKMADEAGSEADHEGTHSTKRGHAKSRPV
human fibrinogen, sequence (chain, as listed by the source, chain 2 of 3): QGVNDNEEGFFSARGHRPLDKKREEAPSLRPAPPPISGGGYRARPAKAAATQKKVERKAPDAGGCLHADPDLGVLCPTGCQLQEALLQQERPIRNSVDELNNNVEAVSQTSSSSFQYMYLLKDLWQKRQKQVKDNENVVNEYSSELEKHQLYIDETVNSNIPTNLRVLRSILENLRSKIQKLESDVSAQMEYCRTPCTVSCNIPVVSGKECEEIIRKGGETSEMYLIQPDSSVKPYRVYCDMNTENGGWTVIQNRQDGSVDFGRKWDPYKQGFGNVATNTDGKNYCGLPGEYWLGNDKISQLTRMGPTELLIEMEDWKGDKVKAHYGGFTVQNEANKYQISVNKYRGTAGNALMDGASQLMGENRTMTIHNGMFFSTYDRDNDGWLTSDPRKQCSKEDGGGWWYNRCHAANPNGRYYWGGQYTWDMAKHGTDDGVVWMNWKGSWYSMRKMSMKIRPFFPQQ
human fibrinogen, sequence (chain, as listed by the source, chain 3 of 3): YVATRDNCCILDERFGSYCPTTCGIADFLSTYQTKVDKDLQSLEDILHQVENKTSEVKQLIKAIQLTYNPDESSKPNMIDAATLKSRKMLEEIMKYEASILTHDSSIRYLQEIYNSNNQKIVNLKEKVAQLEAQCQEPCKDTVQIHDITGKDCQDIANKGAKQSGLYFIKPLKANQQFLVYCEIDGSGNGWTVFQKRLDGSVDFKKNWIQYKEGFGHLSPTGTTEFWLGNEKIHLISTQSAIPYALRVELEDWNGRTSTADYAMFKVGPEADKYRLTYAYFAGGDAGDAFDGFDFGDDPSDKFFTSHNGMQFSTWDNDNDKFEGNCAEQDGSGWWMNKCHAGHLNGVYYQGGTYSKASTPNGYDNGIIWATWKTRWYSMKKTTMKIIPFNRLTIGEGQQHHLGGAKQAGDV
With “recombinant human β-I tryptase (from pPIC9-HumTry, expressed in Pichia pastoris)” the “fibrinogen cleavage (SDS-PAGE of fibrinogen subunits after 60 min incubation)” value (from here on “fibrinogen cleavage”) was “The a and β subunits were efficiently hydrolyzed by the recombinant β-I and β-II tryptase enzymes even during cold incubation”. “recombinant human β-II tryptase (from pPIC9-HumTryN102K, expressed in Pichia pastoris)” was tested, and the “fibrinogen cleavage” value was “The a and β subunits were efficiently hydrolyzed by the recombinant β-I and β-II tryptase enzymes even during cold incubation”. “β-tryptase isolated from a cadaver (native β)” was tested, and the “fibrinogen cleavage” value was “Native β-tryptase was less efficient at fibrinogeneolysis”.
